Experimental data reported in CN115960240A (CHINESE ACADEMY OF MEDICAL SCIENCES HEMATOLOGIC DISEASE …, dated 2023).

Columns and labels:
人BCMA (B细胞成熟抗原) = target: T1, 人BCMA (B细胞成熟抗原) (human, UniProt Q02223 1-184); test: FACS titration (400 nM to 0.025 nM) on H929 cells, mean fluorescence, fitted in GraphPad Prism 7
T1 construct: whole, on cells; Endogenous BCMA on H929 cells; also called B-cell maturation antigen; H929细胞表面BCMA蛋白
T1 sequence (looked up): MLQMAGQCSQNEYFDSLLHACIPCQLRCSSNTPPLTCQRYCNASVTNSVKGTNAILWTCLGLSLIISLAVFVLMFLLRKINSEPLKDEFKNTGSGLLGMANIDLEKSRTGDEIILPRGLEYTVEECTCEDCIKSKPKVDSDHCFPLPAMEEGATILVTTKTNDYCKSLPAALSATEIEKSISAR

人CD3 = target: T2, 人CD3 (human, UniProt P07766 23-207); test: FACS titration (400 nM to 0.025 nM) on Jurkat cells, mean fluorescence, fitted in GraphPad Prism 7
T2 construct: whole, on cells; also called Jurkat细胞表面CD3蛋白
T2 sequence (P07766 23-207): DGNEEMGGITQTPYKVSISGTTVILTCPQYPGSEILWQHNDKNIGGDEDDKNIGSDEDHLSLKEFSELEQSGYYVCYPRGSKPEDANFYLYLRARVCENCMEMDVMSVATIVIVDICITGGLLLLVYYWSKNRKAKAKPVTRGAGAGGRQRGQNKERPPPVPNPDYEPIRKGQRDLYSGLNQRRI

- Kd (人BCMA (B细胞成熟抗原)): 1.96 nM
- Kd (人CD3): 1.96 nM
B1: 四价双特异性抗体Tandab(CD3/BCMA) (bispecific antibody)
chain: DADIELTQSPAIMSASPGEKVTMTCSASSSVSYMNWYQQKSGTSPKRWIYDTSKLASGVPARFSGSGSGTSYSLTISGMEAEDAATYYCQQWSSNPFTFGCGTKLELKRGGGGSQVQLQQSGAEVVRPGTSVKVSCKASGYAFTNYLIEWVKQRPGQGPEWIGVITPGRGDTKYNAKFAGKATLTADKSSSTAYMQLSSLTFDDSAVYFCARGTTAWFPYWGQGTLVTVSAGGGGSGGGGSGGGGSDIVLTQSPASLTVSLGQRATISCRASKSVSTSGYSYMHWYQQKPRQPPKLLIYLASNLESGVPARFSGSGSGTDFTLNIHPVEEEDAATYYCQHSRDLPYTFGGGTKLEIKRAGGGGSQVQLQQSGAELARPGASVKMSCKASGYTFTRYTMHWVKQRPGQCLEWIGYINPSRGYTNYNQKFKDKATLTTDKSSSTAYMELTRLTSEDSAVYYCARYYDDHYSLDYWGQGTTVTVSSHHHHHH
notes: Tetravalent tandem diabody made from anti-BCMA mAb 69G8 and anti-CD3 mAb HIT3a, expressed in ExpiCHO-S cells and purified on a nickel column; detected with an anti-His secondary antibody, so it carries a His tag
